Data from patent publication US20240287172A1 (SCIRHOM, published 2024).

Tests used:
[1] = molecular target: T1, dog iRhom2 full length wild type, T7-tagged (dog, UniProt Q00M95 1-827); assay: FACS, MEF-DKO cells; via representative antibody 16
T1 construct: whole, on cells; on MEF-DKO cells; also called Dog-iR2-FL-WT-T7
T1 sequence: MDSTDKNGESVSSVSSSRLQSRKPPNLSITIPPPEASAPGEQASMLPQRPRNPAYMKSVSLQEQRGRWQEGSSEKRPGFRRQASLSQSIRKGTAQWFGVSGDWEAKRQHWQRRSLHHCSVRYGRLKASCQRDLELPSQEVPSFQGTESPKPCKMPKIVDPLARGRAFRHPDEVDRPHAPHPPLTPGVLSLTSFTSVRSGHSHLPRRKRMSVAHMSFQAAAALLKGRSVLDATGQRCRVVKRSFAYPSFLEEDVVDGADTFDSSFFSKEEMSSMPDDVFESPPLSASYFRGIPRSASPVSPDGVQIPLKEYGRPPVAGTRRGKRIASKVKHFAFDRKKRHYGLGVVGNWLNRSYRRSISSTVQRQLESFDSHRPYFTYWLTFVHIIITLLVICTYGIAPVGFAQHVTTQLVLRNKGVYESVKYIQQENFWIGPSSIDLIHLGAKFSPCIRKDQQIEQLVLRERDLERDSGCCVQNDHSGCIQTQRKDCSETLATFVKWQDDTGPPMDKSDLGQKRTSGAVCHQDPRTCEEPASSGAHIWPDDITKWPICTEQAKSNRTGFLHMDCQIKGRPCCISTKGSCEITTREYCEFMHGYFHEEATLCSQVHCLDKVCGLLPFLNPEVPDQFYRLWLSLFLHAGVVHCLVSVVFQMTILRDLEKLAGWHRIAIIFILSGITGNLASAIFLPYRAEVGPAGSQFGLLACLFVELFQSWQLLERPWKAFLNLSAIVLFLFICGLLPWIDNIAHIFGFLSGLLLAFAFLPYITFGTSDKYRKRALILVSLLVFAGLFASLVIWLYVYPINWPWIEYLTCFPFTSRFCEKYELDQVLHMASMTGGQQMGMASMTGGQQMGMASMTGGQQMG
Description: In brief, immortalized MEF-DKO-EV control cells, MEF-DKO-rhesus-iR2-FL-WT-T7 cells, MEF-DKO-cyno-iR2-FL-WT-T7 cells, MEF-DKO-dog-iR2-FL-WT-T7 cells and MEF-DKO-rabbit-iR2-FL-WT-T7 cells, as well as their respective iRhom1 counterparts, were harvested with 10 mM EDTA in PBS, washed and resuspended in FACS buffer (PBS, 3% FBS, 0.05% sodium azide), and seeded in Nunc U-bottom 96-well plates (Thermo Fisher Scientific, USA) at approximately 3×10⁵ cells per well. To pellet cells and remove supernatants, the plates were centrifuged at 1,500 rpm and 4° C. for 3 minutes. For primary staining, cells were resuspended in 100 μl per well of either FACS buffer alone (controls), mouse monoclonal anti-T7 IgG (Merck Millipore, USA) at 3 μg/ml FACS buffer or the antibodies of the invention also at 3 μg/ml FACS buffer and incubated on ice for 1 hour.
Afterwards, plates were centrifuged at 1,500 rpm and 4° C. for 3 minutes and washed twice with 200 μl per well of FACS buffer. For secondary staining, cells were spun down and resuspended in 100 μl per well of PE-conjugated goat anti-mouse IgG F(ab′)2 detection fragment (Dianova, Germany) diluted 1:100 in FACS buffer. Protected from light, the cell suspensions were incubated on ice for 1 hour. Plates were then centrifuged at 1,500 rpm and 4° C. for 3 minutes and washed three times with 200 μl per well of FACS buffer. Finally, cells were resuspended in 150 μl per well of FACS buffer and analyzed using a BD Accuri™ C6 Plus flow cytometer (Becton Dickinson, Germany).

[2] = molecular target: T2, human iRhom2, endogenously expressed (human, UniProt Q6PJF5 1-856); assay: cell-based or functional assay
T2 sequence: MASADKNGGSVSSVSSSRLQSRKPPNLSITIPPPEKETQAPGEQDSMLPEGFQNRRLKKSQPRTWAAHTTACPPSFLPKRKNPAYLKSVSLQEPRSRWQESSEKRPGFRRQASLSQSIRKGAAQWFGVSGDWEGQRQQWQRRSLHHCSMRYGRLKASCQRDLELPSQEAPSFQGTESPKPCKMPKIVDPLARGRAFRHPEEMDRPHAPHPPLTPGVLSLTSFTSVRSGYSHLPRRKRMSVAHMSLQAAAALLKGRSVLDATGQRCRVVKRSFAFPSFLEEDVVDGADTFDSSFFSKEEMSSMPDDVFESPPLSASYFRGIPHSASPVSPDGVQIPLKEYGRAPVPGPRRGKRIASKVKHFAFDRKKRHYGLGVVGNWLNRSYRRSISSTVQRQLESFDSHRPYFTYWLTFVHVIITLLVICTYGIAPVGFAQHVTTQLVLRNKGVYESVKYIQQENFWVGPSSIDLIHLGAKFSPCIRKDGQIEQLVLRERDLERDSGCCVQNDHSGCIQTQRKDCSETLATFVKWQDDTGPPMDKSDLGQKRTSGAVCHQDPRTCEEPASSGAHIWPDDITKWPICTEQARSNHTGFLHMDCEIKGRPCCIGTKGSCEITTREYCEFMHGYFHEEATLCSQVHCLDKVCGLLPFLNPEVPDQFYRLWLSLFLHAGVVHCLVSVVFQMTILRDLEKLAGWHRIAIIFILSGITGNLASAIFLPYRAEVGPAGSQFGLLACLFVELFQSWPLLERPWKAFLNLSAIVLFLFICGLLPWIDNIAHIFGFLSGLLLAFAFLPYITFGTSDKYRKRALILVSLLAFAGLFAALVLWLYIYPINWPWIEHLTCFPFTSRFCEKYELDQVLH

| Binder | binding result [1] | LPS-induced TNFα release from THP-1 cells, percent inhibition, 10 µg/ml, hybridoma-purified [2] [%] | LPS-induced TNFα release from THP-1 cells, percent inhibition, recombinant antibody [2] [%] | PMA-induced IL-6R release from THP-1 cells, percent inhibition, 1 µg/ml [2] [%] | PMA-induced IL-6R release from U-937 cells, percent inhibition, 1 µg/ml [2] [%] | PMA-induced TNFα release from U-937 cells, percent inhibition, 1 µg/ml [2] [%] | LPS-induced TNFα release from PBMCs of healthy donors, percent inhibition, 1 µg/ml [2] [%] | LPS-induced TNFα release from human macrophages of healthy donors, percent inhibition, 10 µg/ml [2] [%] | PMA-induced HB-EGF release from PBMCs of healthy donors, percent inhibition, 1 µg/ml [2] [%] | PMA-induced HB-EGF release from THP-1 cells, percent inhibition, 3 µg/ml [2] [%] | PMA-induced HB-EGF release from U-937 cells, percent inhibition [2] [%] | PMA-induced IL-6R release from PBMCs of healthy donors, percent inhibition, 1 µg/ml [2] [%] | PMA-induced IL-6R release from U-937 cells, percent inhibition, 3 µg/ml [2] [%] | PMA-induced TGFα release from PC3 cells, percent inhibition, 1 µg/ml [2] [%] | PMA-induced TNFα release from U-937 cells, percent inhibition, 3 µg/ml [2] [%] |
| --- | --- | --- | --- | --- | --- | --- | --- | --- | --- | --- | --- | --- | --- | --- | --- |
| antibody 51 (antibody, V domains shown, mouse IgG, kappa light chain; also called clone #51) VH: QVQLQQSGAELVKPGASVKISCKASGYTFSNYWMNWVKQRPGKGLEWIGQIYPGDGDTKYNGKFKNKATLTADKSSSTAYMQFSSLTSEDSAVYFCARGDLVFVYWGLGTLVTVSA VL: DVQITQSPSYLAVSPGETITINCRASKNIRKYLAWYQEKPGKTNKLLIYSGSTSQSGVPSRFSGSGSGTDFTLTISSLEPEDFAMYYCQQHNEYPYTFGGGTKLEIK | binds | – | – | – | – | – | – | – | – | – | – | – | – | – | – |
| antibody 48 (antibody, V domains shown, mouse IgG, kappa light chain; also called clone #48; purified antibody 48) VH: QVQLQQSGTELVRPGTSVKVSCKASGYAFTNYLIEWVKQRPGQGLEWIGVINPGSGFTKYNEKFKGKATLTADKSSSTVYMHLSSLTSEDSAVYFCARGLYRAMDYWGQGTSVTVSS VL: DIQMTQSPASQSASLGESVTITCLASQTIATWLAWYQQKPGKSPQLLIYGATTLADGVPSRFSGGGSGTKFSFKISSLQAEDFVSYYCQQLYSTPYTFGGGTKLEIK | binds | – | – | – | – | – | – | – | – | – | – | – | – | – | – |
| antibody 47 (antibody, V domains shown, mouse IgG, kappa light chain; also called clone #47) VH: QVQLQQSGAELVRPGTSVKVSCKASGYAFTNYLIEWVKQRPGQGLEWIGVINPGSGFTNYNEKFKGKAILNADKSSSTAYMQLISLTSEDSAVYFCARDLKRAMDHWGQGTSVTVSS VL: DIQMTQSPASQSASLGESVTITCLASQTIGTWLAWYQQKPGKSPQLLIHAATSLADGVPSRFSGSGSGTKFSFKISSLQAEDFVSYYCQQIYSSPYTFGGGTKLEIK | binds | – | – | – | – | – | – | – | – | – | – | – | – | – | – |
| antibody 50 (antibody, V domains shown, mouse IgG, kappa light chain; also called clone #50; purified antibody 50) VH: QVQLQQSGAELVRPGASVKVSCKASGYAFSNYLIEWVKQRPGQGLEWIGVINPGSGFTKYNEKFKGKATLTADKSSSTAYMQLSSLTSEDSAVYFCARGLYRAMDYWGQGTSVTVSS VL: DIQMTQSPASQSASLGESVTITCLASQTIGTWLAWYQQKPGKSPQLLIYAAASLADGVPSRFSGGGSGTKFSFKISSLQAEDFVNYYCQQIYSTPYTFGGGTKLEIK | binds | – | – | – | – | – | – | – | – | – | – | – | – | – | – |
| antibody 3 (antibody, V domains shown, mouse IgG, kappa light chain; also called clone #3; purified antibody 3) VH: QVTLKESGPGILQPSQTLSLTCSFSGFSLTTFAMGIGWVRQPSGKGLEWLAHIWWDGEKYNNPVLKSRLTISKDTSKNQVFLRIANVDTPDTATYYCARISSIYYIIDNWGQGTSVTVSS VL: DIVLTQSPATLSVTPGHSVSLSCRASQSISNNLHWYQKKSHESPRLLIKYVSQSISGIPSRFSGSGSGTDFTLSINSVETEDFGMYFCQQSYNWPLTFGAGTKLELK | binds | 71.2 | 59.9 | 46.7 | 61.8 | 65.9 | – | – | – | – | – | – | – | – | – |
| antibody 5 (antibody, V domains shown, mouse IgG, kappa light chain; also called clone #5; purified antibody 5) VH: QVTLKESGPGILQPSQTLSLTCSFSGFSLSTFGMGVGWIRQPSGKGLEWLAHIWWDDEKYYNSALKSRLTISKATSKNQAFLKIANVDTADTATYYCARISNYGSNYWYFNVWGTGTTVTVSS VL: QVVLTQSPALMSASPGEKVTMTCSAGSSVSCMYWYQQKPGSSPRVLIYDTSNLASGVPARFTGSGSGTSYSLTISRMEAEDAASYYCQQWNSYPLTFGAGTKLELK | binds | 69 | 70.5 | 64.1 | 67 | 63.6 | – | – | – | – | – | – | – | – | – |
| antibody 42 (antibody, V domains shown, mouse IgG, kappa light chain; also called clone #42; purified antibody 42) VH: QVTLKESGPGILQPSQTLSLTCSLSGFSLSTFGRGVGWIRQPSGKGLEWLAHIWWDDEKYYNPALKSRLTISKDTSKNQVFLRIANVDTADTATYYCARIQNYGSNYWYFDVWGTGTTVTVSS VL: LIVLTQSPAIMSASPGEKVTMTCGATSRISYMFWYQQKPGSSPRVLIYDTSNLASGVPVRFSGSGSGTSYSLTISRVEAEDVATYYCQQWNSYPLTFGAGTKLELK | binds | 76.7 | 75.9 | 85.9 | 80.8 | 94.5 | 77 | 93.2 | 77.6 | 76.6 | 104 | 85 | 84.4 | 14.3 | 94.1 |
| antibody 22 (antibody, V domains shown, mouse IgG, kappa light chain; also called clone #22; purified antibody 22) VH: QVTLKESGPGILQPSQTLSLTCSFSGFSLSTFGMGVGWIRQPSGKGLEWLAHIWWDDEKYYNSALKSRLTISKATSKNQVFLKIANVDTADTATYYCARISNYGSNYWYFNVWGTGTTVTVSS VL: QVVLTQSPALMSASPGEKVTMTCSAGSSVSYMYWYQQKPGSSPRVLIYDTSNLASGVPARFTGSGSGTSYSLTISRMEAEDAATYYCQQWNSYPLTFGAGTKLELK | binds | 78.8 | 78.4 | 67.4 | 74.5 | 86.1 | 72.8 | 78.8 | 56.5 | 77.7 | 101 | 79.3 | 79 | 12.7 | 93.1 |
